Experimental findings from patent publication US10640556B2, “Anti amphiregulin antibodies, compositions comprising same and uses thereof” (Yeda Research and Development Co. Ltd., priority 2015, dated 2020) are described below.

The target in experiment [1] is T1, EGFR (Homo sapiens, UniProt P00533). In words: Receptor downregulation assay in MCAS cells. It counts as cell-based. Also noted: endogenous in cells; host or cells: MCAS, MLS, H358, A549. Particulars: ligand 10 ng/ml. The procedure:
(§1) The cells were later washed and lysed, and the associated radioactivity was determined. […] The cells were later washed and lysed in 1 N NaOH. Cell-associated radioactivity was determined. […] Washed immunocomplexes, along with whole extracts, were immunoblotted with the indicated antibodies.
At the end of the incubation period, the cells were placed on ice, washed with ice cold medium and subjected to mild acid wash (0.2 M Na-acetate buffer, pH 4.5, and 0.5 M NaCl) for 2 minutes, followed by 2 washes in ice cold medium. […] Finally, cells were lysed in 1 N NaOH, and their radioactivity was determined.

The target in experiment [2] is T1, EGFR. Nature of the experiment: Ligand-induced receptor ubiquitination assay (MCAS, MLS, H358, A549 cells). It counts as cell-based. Also noted: endogenous in cells; host or cells: MCAS, MLS, H358, A549. Particulars: 10 minutes, ligand 100 ng/mL; MCAS, MLS, H358, A549 cells. The procedure:
as §1
For determination of ligand-induced receptor ubiquitination, cells were extracted in lysis buffer (50 mM HEPES pH 7.5, 150 mM NaCl, 10% glycerol, 1% Triton X-100, 1 mM EDTA, 1 mM EGTA, 10 mM NaF and 30 mM 3-glycerol phosphate) with freshly added 0.2 mM Na3VO4, a protease inhibitor cocktail and 2 mM N-ethylmaleimide (NEM). Twenty μL of protein G agarose beads and 1 μg of antibody were added to 500 μg of protein lysate. After a 2 hour incubation at 4° C., the immunoprecipitates were collected by centrifugation at 14,000 rpm at 4° C. for 1 minute. The supernatant was discarded and the pellet was washed thrice, prior to electrophoresis.

For experiment [3], the system named is Cal-27 human head and neck cancer cells. Nature of the experiment: Cal-27 head and neck tumor xenograft in nude mice. It counts as in vivo. Particulars: Cal-27 tumors, 300 μg per injection intraperitoneally twice a week. The procedure:
Female nude mice were inoculated subcutaneously with Cal-27 human head and neck cancer cells (2×10^6). Once tumors became palpable (5-7 days) mice were randomized and intraperitoneally injected with saline (Control), or with anti-AR mAbs: AR30, AR37 or AR558 (each at 300 μg per injection). Mice were treated with mAbs twice a week and tumor volume was followed. Shown are averages and SD values from at least 5 mice per group.
To test the ability of anti-AREG antibodies to reduce growth of human tumor cells implanted in immunocompromised mice, Cal 27 tumor cells were used which were inoculated subcutaneously and randomized for treatment after tumors became palpable. […] Furthermore, studies testing pairs of two mAbs illustrate their enhanced anti-tumor activities (data not shown), this can be attributed to the fact that the mAbs bind to distinct antigenic determinants of amphiregulin.

In experiment [4] the test system is EGFR. Nature of the experiment: AREG-induced EGFR phosphorylation in HeLa cells (immunoblot). The format is cell-based, human. Particulars: for AREG-induced phosphorylation of EGFR: AREG 100 ng/ml, mAb 0.1-50 μg/ml, FIG. 10A. The protocol:
FIGS. 6A-6F illustrate AR30, an anti-AREG monoclonal antibody, that inhibits auto-phosphorylation of EGFR. FIG. 6A is a photograph of a Coomassie blue staining of an acrylamide gel showing a purified fraction of AREG isolated from bacteria and purified on a NiNTA column. The molecular weight marker lane indicates a 15 kilodalton band; FIG. 6B, cells were seeded in a 24 well plate, washed and incubated with increasing concentrations of the purified TRX-AREG fusion protein (8.5, 85, 850, 8500 ng/ml). […] Following a 10-min long incubation, the cells were lysed and cleared extracts immunoblotted (IB) with an anti-phosphotyrosine antibody (PY-99); FIG. 6C, 96 well plates were coated with the indicated ligands (0.1 μg/ml), and then incubated for 3 hours with three different mAbs specific to AREG. Thereafter, wells were incubated for two hours with an anti-mouse antibody conjugated to HRP, followed by a 30 minutes incubation with ATBS. […] Serum from non-immunized mice was used as a negative control; FIG. 6E, HeLa cells were pre-incubated with (or without) mAb AR30 (20 μg/mL) and increasing concentrations of AREG. Thereafter, whole cell lysates were immunoblotted (IB) using an antibody specific to the phosphorylated form of EGFR (tyrosine 1068) or an antibody to EGFR; and FIG. 6F, HeLa cells were incubated with (or without) AREG (100 ng/mL) in the presence of increasing concentrations of mAb AR30 (5, 10, 20 and 50 μg/mL). Thereafter, cells were lysed and cleared extracts immunoblotted (IB) using the indicated antibodies.
FIG. 10A illustrates that anti-AREG mAbs inhibit ligand-induced activation of EGFR. HeLa cells were incubated with (or without) AREG (100 ng/ml) in the presence of increasing concentrations of mAb AR30, mAb AR 37 or mAb AR558 (0.1, 0.2, 0.5, 0.75, 1.5, 3.5, 6.25, 12.5, 25 and 50 μg/ml). Thereafter, cells were lysed and cleared extracts immunoblotted (IB) using the indicated antibodies, including an antibody specific to the phosphorylated (active) for of EGFR (pEGFR).

The next experiment deals with MCF10A cells. Nature of the experiment: MTS proliferation assay of MCF10A cells. It counts as cell-based, human. Particulars: 72 h, absence or presence of AREG, relatively high mAb concentrations. The protocol:
Proliferation assays using MTS were performed on MCF10A cells (1,000 cells per well). C ells were plated on the day before and treated for 72 h with the indicated mAbs (1, 5, 10, 20 or 50 ug/mL). Increasing concentrations of the indicated mAbs (either alone or in combination with AREG) were used in medium supplemented with 1% serum and AREG (either at 10 or 100 ng/mL).
For orientation: Tetrazolium dyes change colour on reduction, which living cells bring about.

Experiment [5] concerns the target T2, human AREG (Homo sapiens, UniProt P15514).
T2 sequence (P15514 101-198 limits assumed): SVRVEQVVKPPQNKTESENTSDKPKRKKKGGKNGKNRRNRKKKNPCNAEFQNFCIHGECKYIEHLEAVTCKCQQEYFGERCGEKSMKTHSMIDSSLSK
Nature of the experiment: Antigenic determinant comparison of anti-AREG mAbs. It counts as binding. Particulars: data not shown.

The target in experiment [6] is T2, human AREG. Nature of the experiment: Plasmon resonance and immunoblotting of EGF-family ligands with AR30. It counts as binding. The procedure:
FIGS. 6A-6F illustrate AR30, an anti-AREG monoclonal antibody, that inhibits auto-phosphorylation of EGFR. FIG. 6A is a photograph of a Coomassie blue staining of an acrylamide gel showing a purified fraction of AREG isolated from bacteria and purified on a NiNTA column. The molecular weight marker lane indicates a 15 kilodalton band; FIG. 6B, cells were seeded in a 24 well plate, washed and incubated with increasing concentrations of the purified TRX-AREG fusion protein (8.5, 85, 850, 8500 ng/ml). […]
SPR was performed on a BIAcore 3000 instrument (BIAcore, Uppsala, Sweden). […] The net signal was obtained by subtracting the blank signal (plain dextran matrix) from the signal recorded from the immobilized surface. The association phase for analyte binding to all ligands was followed for 4 minutes, and dissociation phases were monitored for 3 minutes. […] The response was monitored as a function of time (sensorgram). […]
To functionally characterize a selected anti-AREG mAb, its specificity was tested using an Enzyme-Linked Immunosorbent Assay (ELISA) assay covered with different ligands. […] The AR30 affinity to the different ligand was assessed by Surface plasmon resonance (SPR).

The subject of the next experiment is MLS ovarian cancer cells. Nature of the experiment: MLS ovarian tumor xenograft in nude mice. The format is in vivo. Particulars: MLS tumors. The protocol: FIG. 7A, female nude mice (6 weeks old) were inoculated subcutaneously with MLS ovarian cancer cells (2×10^6 per animal). Once tumors became palpable, mice were randomized into two groups. Eleven mice were injected intraperitoneally with an anti-AREG mAb (AR30; 200 μg/mouse; twice a week, on days: 8, 11, 14, 17, and 21). The control group also included 11 mice. Shown are means±S.D. values; FIG. 7B, female nude mice (6 weeks old) were inoculated subcutaneously with MLS ovarian cancer cells (2×10^6 per animal). Once tumors became palpable, mice were randomized into four groups. One group (8 mice) was injected intraperitoneally with the AR30 mAb (100 μg/mouse twice a week, on days: 8, 14, 17, 21, 24 and 28). Another group (8 mice) was treated with cisplatin (5 mg/kg; on days 8 and 21). The fourth group was treated with a combination of mAb AR30 and cisplatin. The control group included 12 mice; and FIG. 7C, the indicated MLS tumors were excised, and their average weights determined. Representative tumors were photographed.
All animal procedures were approved by the Weizmann Institute of Science's review board. Female athymic NCr-nude mice (6 weeks old) were inoculated subcutaneously with 2×10^6 human ovarian MLS cancer cells. Once tumors became palpable (5-7 days), the mice were randomized into groups and injected intraperitoneally at the indicated time points with the indicated monoclonal antibodies, chemotherapy or the combination. Tumor volumes were monitored twice a week, and body weights were measured once a week.

For the molecule “TGF-alpha: transforming growth factor alpha, high-affinity EGFR ligand”, the EGFR downregulation with EGFR [1] is reported as 70-75%. The “ubiquitination of EGFR” value in the experiment with EGFR [2] was “strong ubiquitination”.

B1: AR558: anti-AREG monoclonal antibody from AREG knockout mice; heavy chain SEQ ID NO: 30, light chain SEQ ID NO: 46 (antibody, V domains shown)
VH: EVQLQQSGAELVKPGASVKLSCTASGFNIKDTYMHWVKQRPEQGLEWIGRIDPANRSTKYDPKFQGKATITADTSSNTADLHLSSLTSEDTAVYYCARLYGDSVWYFDVWGAGTTVTVSSAKT
VL: QIVLTQSPAILSASPGEKVTMTCRAGSSVNYIHWYQQKPGSSPKPWIYATSNLASGVPARFSGSGSGTSYSLTISRVEAEDAATYYCQQWSGYPPMLTFGAGTKLELKR
modifications: AR558 heavy chain IgG complete amino acids coding sequence; AR558 light chain (kappa) complete amino acids coding sequence
As to B1, the tumor growth result in experiment [3] is listed as “exceeded the activity of either antibody”. Further, the “AREG-induced phosphorylation of EGFR” value in the experiment on EGFR [4] is “low concentrations of the antibodies were sufficient for blocking”. In addition, the inhibition of proliferation result in the experiment on MCF10A cells is “Moderate inhibition”. Moreover, the antigenic determinant targeted result with human AREG [5] is recorded as “engages a different determinant of human AREG”.

B2: AR30: anti-AREG monoclonal antibody; heavy chain SEQ ID NO: 2, light chain SEQ ID NO: 16 (antibody, V domains shown)
VH: EVQLQQSGAELVRSGASVKLSCTASGFNIKDSYMHWVKQRPEQGLEWIGWVDPDNGDTEYAPEFQGRATLTADTFSSTAYLQLTSLTSEDTAVYYCNAPSTYGHYGFAYWGQGTLVTVSA
VL: DIVMTQAAPSVPVTPGESVSISCRSSKSLLHSNGKAYLYWFLQRPGQSPQLLIYRMSNLASGVPDRFSGSGSGTAFTLRISRVEAEDVGVYYCMQHLEYPLTFGAGTKLELKR
modifications: AR30 heavy chain (IgG) complete amino acids coding sequence; AR30 light chain (kappa) complete amino acids coding sequence
As for B2, the tumor growth entry in experiment [3] is recorded as “comparably inhibit tumor growth”; in the experiment on MLS ovarian cancer cells (AR30 100 μg/mouse twice a week, cisplatin 5 mg/kg, FIG. 7B) it was “only mildly inhibited”; with MLS ovarian cancer cells (antibodies injected into the peritoneum, six weeks, data not shown), “partly inhibited tumor growth”. Further, in the experiment on EGFR [4] (AR30 5-50 μg/mL, FIGS. 6E-6F), the “effect of AREG on receptor phosphorylation” value is recorded as “only partially reduced”. For the same molecule, in the experiment with EGFR [4], the “AREG-induced phosphorylation of EGFR” value is reported as “low concentrations of the antibodies were sufficient for blocking”. Further, the “downstream signaling to ERK (phosphorylated ERK)” value in the experiment with EGFR [4] (data not shown) is recorded as “insufficient for blocking downstream signaling to ERK”. Further, the “binding of AR30 with human AREG” value in the experiment with human AREG [6] is reported as “high affinity binding”. The “recognition of other EGFR ligands” value in the experiment with human AREG [6] is on record as “recognized no other EGFR ligand, except for the human form of HB-EGF”. For the same molecule, in the experiment on MCF10A cells, the inhibition of proliferation result is “Moderate inhibition”. Besides, the “anti-tumor effect compared with cetuximab” value with MLS ovarian cancer cells (six weeks, data not shown) was “at least as effective as cetuximab”. Besides, the antigenic determinant targeted entry in the experiment with human AREG [5] is “engages a different determinant of human AREG”.
